{"source": "paper PMC3025356", "about": "“Mechanism of the Ca^2+-Dependent Interaction between S100A4 and Tail Fragments of Nonmuscle Myosin Heavy Chain IIA” (Journal of Molecular Biology, 2011)", "molecules": {"B1": {"name": "M200: His-tagged human NM-MHC IIA residues Q1761-E1960, V1913I substitution (protein, UniProt P35579 1761-1960, looked up, variant V1913I)", "chain": "QINTDLNLERSHAQKNENARQQLERQNKELKVKLQEMEGTVKSKYKASITALEAKIAQLEEQLDNETKERQAACKQVRRTEKKLKDVLLQVDDERRNAEQYKDQADKASTRLKQLKRQLEEAEEEAQRANASRRKLQRELEDATETADAMNREISSLKNKLRRGDLPFVVPRRMARKGAGDGSDEEVDGKADGAEAKPAE", "modifications": "His tag", "notes": "His-tagged human NM-MHC IIA residues Q1761-E1960, V1913I substitution"}}, "key": {"M200 filaments": {"tested_on": "M200 filaments", "assay": "Stopped-flow turbidity, dissociation of M200 filaments on NaCl jump or dilution", "format": "biochemical, human", "protocol": "Fig. 9 Dissociation of M200 filaments by S100A4. (a) Initially, M200 was added (i) from a concentrated stock in 0.5 M NaCl to give a final concentration of 5 μM M200 (with respect to the polypeptide chain) in 100 mM NaCl, 10 mM Hepes, and 0.1 mM Ca^2+ at pH 7.5 and 20 °C. A biphasic rise in turbidity was recorded for 200 s (continuous line). Then 10 μM S100A4 (with respect to monomer concentration) was added (ii), followed by 0.2 mM EGTA (iii) and 1 mM Ca^2+ (iv). […] (b) M200 was diluted (i) into 100 mM NaCl to form filaments as in (a), then 5 μM S100A4 was added (ii), causing a 54% drop in turbidity. A further 5 μM S100A4 (iii) caused turbidity to fall to almost zero. (c) Stopped-flow records monitoring the dissociation of 5 μM M200 filaments on jumping [NaCl] from 100 mM to 120 mM NaCl. Other components of the buffer were 20 mM Hepes, 1 mM Mg^2+, and 100 μM Ca^2+ at pH 7.5 and 20 °C. […] In the presence of 20 μM S100A4 (lower trace), the turbidity decreased by 87% with a rate constant of 0.2 s^− 1.\nIt is of interest to know whether S100A4 drives depolymerisation solely by binding to free M monomer and allowing the polymer equilibrium to readjust (i.e., via k− 4 and k5), or whether S100A4 also binds to the filament bundle and actively depolymerises an M200 unit (via k6 and k− 7). […] In an attempt to address this question, the dissociation rate of the M200 filament was followed on jumping the NaCl concentration from 100 mM to 120 mM in the absence and in the presence of S100A4 (Fig. 9c). Under these conditions in the absence of S100A4, turbidity dropped to about 50% of its initial value with a profile fitted to a double exponential (k1obs = 0.33 s^− 1 with 12% amplitude and k2obs = 0.037 s^− 1 with 43% amplitude, relative to the total amplitude expected for a full dissociation). Therefore, at the end point of this reaction, the filament concentration decreased by about 2-fold (turbidity is proportional to concentration over this range; Fig. S5b). There should also be a corresponding rise in M200 monomer concentration, but this may be less than accounted for by the loss of filaments if the drop in turbidity was also associated with a rise in small M200 oligomers with a lower specific turbidity. […]"}, "S100A4": {"molecular_target": "T1, S100A4 (Homo sapiens, UniProt P26447)", "T1 construct": "We used full-length S100A4 for this analysis; made in house; host or cells: Escherichia coli BL21(DE3)", "assay": "Ca^2+ dependence of M200 turbidity in the presence of S100A4", "format": "biochemical", "conditions": "5 μM M200 + S100A4; 100 mM NaCl, 20 mM Hepes, 1 mM Mg^2+, 1 mM EGTA, 1 μM Fura-2; read-out: apparent Kd for Ca^2+ binding", "excerpt": "The decrease in fluorescence, […]\nthat F-M16N binding was slightly faster.\nThe equilibrium constant (K5) for dissociation of the M200.S100A4.Ca2+ complex The value of K5 (scheme 2) was estimated from two independent experiments. From the competition […]\ninhibition in the amplitude of the turbidity change arising from 5 M M200 at saturating Ca2+ concentrations. Under these conditions the free S100A4.Ca2+ concentration is ~ 0.06 M based on K2 = 3 […]\nconcentration will remain close to its critical concentration (K4 = 0.1 M), so that K5 = 0.1 * 0.06 / 5 ≈ 0.001 M, which represents the binding of S100A4.Ca2+ to free M200.\nA second estimate was calculated from the apparent Ca2+ binding constant observed in the turbidity assay\n(Fig. S6c). 5 M M200 in the presence of S100A4 and 1 mM EGTA gave a high turbidity in 0.1 M NaCl buffer, as S100A4 binds weakly under these conditions. Addition of aliquots of Ca2+ caused filament dissociation as the free Ca2+ rose, to give an apparent binding constant for Ca2+ of 0.14 M (Fig. S6c). At […]\ncontained 100 mM NaCl, 20 mM Hepes, 1 mM Mg2+, 1 mM EGTA and 1 µM Fura-2. Ca2+ was added in l aliquots and the turbidity measured (using the 10 mm path length). The free Ca2+ was calculated from the ratio of the Fura-2 340 nm to 362 nm excitation peaks, assuming a Kd of 0.224 M 1, measured between each addition of Ca2+ (using the 2 mm path length for excitation)."}}}
{"molecule": "B1", "values": [{"measurement": "turbidity change on dilution relative to that with S100A4", "setting": "M200 filaments; 2-fold dilution at 100 mM NaCl, no S100A4", "value": 10, "unit": "%"}, {"measurement": "fast rate constant, no S100A4", "setting": "M200 filaments; NaCl jump 100 to 120 mM", "value": 0.33, "unit": "s^− 1"}, {"measurement": "slow rate constant, no S100A4", "setting": "M200 filaments; NaCl jump 100 to 120 mM", "value": 0.037, "unit": "s^− 1"}, {"measurement": "turbidity of initial value after NaCl jump", "setting": "M200 filaments; NaCl jump, no S100A4", "value": "about 50%"}, {"measurement": "Kd", "setting": "S100A4", "value": 140, "unit": "nM"}]}
